Source: patent US20220152100A1, “METHODS FOR CONTROLLED ACTIVATION OR ELIMINATION OF THERAPEUTIC CELLS” (Bellicum Pharmaceuticals, Inc., priority 2014, published 2022)
Substitutions are numbered along the chain they refer to. Names may count otherwise. “Also recorded” adds a separate entry of the source. Where a SMILES comes first, the peptide text is derived from it. The star is where a group is joined. Cbz = O=C(OCc1ccccc1)*; CH2F = FC*

B1: D330A: chimeric modified Caspase-9 polypeptide, SEQ ID NO: 24 (protein)
chain: GFGDVGALESLRGNADLAYILSMEPCGHCLIINNVNFCRESGLRTRTGSNIDCEKLRRRFSSLHFMVEVKGDLTAKKMVLALLELARQDHGALDCCVVVILSHGCQASHLQFPGAVYGTDGCPVSVEKIVNIFNGTSCPSLGGKPKLFFIQACGGEQKDHGFEVASTSPEDESPGSNPEPDATPFQEGLRTFDQLAAISSLPTPSDIFVSYSTFPGFVSWRDPKSGSWYVETLDDIFEQWAHSEDLQSLLLRVANAVSVKGIYKQMPGCFNFLRKKLFFKTS
B2: D327R: chimeric modified Caspase-9 polypeptide (protein)
chain: VDGFGDVGALESLRGNADLAYILSMEPCGHCLIINNVNFCRESGLRTRTGSNIDCEKLRRRFSSLHFMVEVKGDLTAKKMVLALLELARQDHGALDCCVVVILSHGCQASHLQFPGAVYGTDGCPVSVEKIVNIFNGTSCPSLGGKPKLFFIQACGGEQKDHGFEVASTSPEDESPGSNPEPDATPFQEGLRTFRQLDAISSLPTPSDIFVSYSTFPGFVSWRDPKSGSWYVETLDDIFEQWAHSEDLQSLLLRVANAVSVKGIYKQMPGCFNFLRKKLFFKTSASRA
B3: F326K: chimeric modified Caspase-9 polypeptide (protein)
chain: B2 chain with F194K, R195D
B4: Q328K: chimeric modified Caspase-9 polypeptide (protein)
chain: B2 chain with R195D, Q196K
B5: Q328R: chimeric modified Caspase-9 polypeptide (protein)
chain: B2 chain with R195D, Q196R
B6: L329K: chimeric modified Caspase-9 polypeptide (protein)
chain: B2 chain with R195D, L197K
B7: L329G: chimeric modified Caspase-9 polypeptide (protein)
chain: B2 chain with R195D, L197G
B8: A331K: chimeric modified Caspase-9 polypeptide (protein)
chain: B2 chain with R195D, A199K
B9: ^316ATPF^319AVPI: Caspase-9 with XIAP-binding tetrapeptide ATPF replaced by AVPI from SMAC/DIABLO (protein, UniProt P55211 1-416, looked up, variant T317V F319I)
chain: MDEADRRLLRRCRLRLVEELQVDQLWDALLSRELFRPHMIEDIQRAGSGSRRDQARQLIIDLETRGSQALPLFISCLEDTGQDMLASFLRTNRQAAKLSKPTLENLTPVVLRPEIRKPEVLRPETPRPVDIGSGGFGDVGALESLRGNADLAYILSMEPCGHCLIINNVNFCRESGLRTRTGSNIDCEKLRRRFSSLHFMVEVKGDLTAKKMVLALLELAQQDHGALDCCVVVILSHGCQASHLQFPGAVYGTDGCPVSVEKIVNIFNGTSCPSLGGKPKLFFIQACGGEQKDHGFEVASTSPEDESPGSNPEPDAVPIQEGLRTFDQLDAISSLPTPSDIFVSYSTFPGFVSWRDPKSGSWYVETLDDIFEQWAHSEDLQSLLLRVANAVSVKGIYKQMPGCFNFLRKKLFFKTS
modifications: ATPF replaced by SMAC AVPI motif
B10: T317C: chimeric modified Caspase-9 polypeptide (protein)
chain: B2 chain with T185C, R195D
B11: T317A: chimeric modified Caspase-9 polypeptide (protein)
chain: B2 chain with T185A, R195D
B12: D330E: chimeric modified Caspase-9 polypeptide, SEQ ID NO: 188 (protein)
chain: B2 chain with R195D, D198E
B13: D330N: chimeric modified Caspase-9 polypeptide (protein)
chain: B2 chain with R195D, D198N
B14: D330V: chimeric modified Caspase-9 polypeptide (protein)
chain: B2 chain with R195D, D198V
B15: D330G: chimeric modified Caspase-9 polypeptide (protein)
chain: B2 chain with R195D, D198G
B16: D330S: chimeric modified Caspase-9 polypeptide (protein)
chain: B2 chain with R195D, D198S
B17: F404Y: chimeric modified Caspase-9 polypeptide (protein)
chain: B2 chain with R195D, F272Y

How the values were obtained:
[1] = system: EBV-specific CTL lines (EBV-CTL); assay: CID-induced elimination/apoptosis of transduced EBV-CTLs (GFP, annexin V/7-AAD flow cytometry); assay type: cell-based, human; settings: 100 μM for 1 hour prior to adding CID
HEK293T/16 cells = assay: SEAP-based surrogate killing assay of iCasp9 mutants; assay type: cell-based, human; settings: for effect on basal / catalytic activity: in words, versus wild type
Method: Early passage HEK293T/16 cells (ATCC, Manassas, Va.) were maintained in IMDM, GlutaMAX™ (Life Technologies, Carlsbad, Calif.) supplemented with 10% FBS, 100 U/mL penicillin, and 100 […] until transfection in a humidified, 37° C., 5% CO2/95% air atmosphere. Cells in logarithmic-phase growth were transiently transfected with 800 ng to 2 μg of expression plasmid encoding iCasp9 mutants and 500 ng of an expression plasmid encoding SRα promoter driven SEAP per million cells in 15-mL conical tubes. […] GeneJammer® Transfection Reagent at a ratio of 3 μl per ug of plasmid DNA was used to transiently transfect HEK293T/16 cells in the absence of antibiotics. 100 μl or 2 mL of the transfection mixture was added to each well in 96-well or 6-well plate, respectively.
Briefly, after 65° C. heat denaturation for 45 minutes to reduce background caused by endogenous (and serum-derived) alkaline phosphatases that are sensitive to heat, 5 μl of supernatants was added to 95 μl of PBS and added to 100 μl of substrate buffer, containing 1 μl of 100 mM 4-methylumbelliferyl phosphate (4-MUP; Sigma, St. Louis, Mo.) re-suspended in 2 M diethanolamine. Hydrolysis of 4-MUP by SEAP produces a fluorescent […] with excitation/emission (355/460 nm), which can be easily measured. Assays were performed in black opaque 96-well plates to minimize fluorescence leakage between wells. […] of the mixture was seeded onto each well of a 96-well plate. […] For the assay, 4-methylumbelliferyl phosphate substrate was hydrolyzed by SEAP to 4-methylumbelliferon, a metabolite that can be excited with 364 nm and detected with an emission filter of 448 nm. Since SEAP is used as a marker for cell viability, reduced SEAP reading corresponds with increased iCaspase-9 activities.

PG13 = assay type: cell-based; settings: for CD19 mean fluorescence intensity (MFI): PG13 cross-transduced five times; for viral titers: upon HAT media treatment, HT1080 cells
Primary T cells = assay: AP1903-dependent cytotoxicity in primary T cells transduced with iCasp9 variants (CD3+CD19+ flow cytometry); assay type: cell-based, human
Method: The effects of various caspase polypeptides at mostly single copy in primary T cells was assayed. This may reflect more accurately how these suicide genes will be used therapeutically.
Primary T cells from healthy donors (n=6) were transduced with retrovirus encoding mutant or wild-type iCasp9 or iCasp9-D330A, and the ΔCD19 cell surface marker. Following transduction, iCasp9-transduced T cells were purified using CD19-microbeads and a magnetic column.

| Molecule | effect on basal / catalytic activity (HEK293T/16 cells) | other results |
| --- | --- | --- |
| COC(=O)C[C@H](NC(=O)[C@H](C)NC(=O)[C@@H](NC(=O)OCc1ccccc1)C(C)C)C(=O)CF [zVAD-fmk] (Cbz-Val-Ala-Asp(OMe)-CH2F) | – | effect on CID-induced apoptosis [1]: inhibited |
| B1 | lowered basal activity, but not as low as in N405Q; also recorded: less basal activity than wild type Caspase-9 | relative SEAP activity Units (basal, without AP1903) (HEK293T/16 cells; 1 μg iCasp9 per million cells): 148928; relative SEAP activity Units (basal, without AP1903) (HEK293T/16 cells; 2 μg iCasp9 per million cells): 136863; CD19 mean fluorescence intensity (MFI) (PG13): enhanced CD19 mean fluorescence intensity; viral titers (PG13): higher viral titers; sensitivity to AP1903 / killing of target cells (Primary T cells): more sensitive to AP1903 at low titers and kills at least as well as WT Caspase-9; IC50 of AP1903 (Primary T cells; 6 healthy donors, AP1903 0-100 nM, 24 hours): significantly lower |
| B2 | did not lower basal activity | – |
| B3 | did not lower basal activity | – |
| B4 | did not lower basal activity | – |
| B5 | did not lower basal activity | – |
| B6 | did not lower basal activity | – |
| B7 | did not lower basal activity | – |
| B8 | did not lower basal activity | – |
| B9 | no effect | – |
| B10 | no effect | – |
| B11 | can reduce basal activity without a large shift in the IC50 | – |
| B12 | less basal activity than wild type Caspase-9 | CD19 mean fluorescence intensity (MFI) (PG13): enhanced CD19 mean fluorescence intensity; viral titers (PG13): higher viral titers |
| B13 | less basal activity than wild type Caspase-9 | – |
| B14 | less basal activity than wild type Caspase-9 | – |
| B15 | less basal activity than wild type Caspase-9 | – |
| B16 | less basal activity than wild type Caspase-9 | – |
| B17 | – | killing of target T cells (Primary T cells; AP1903 at Day 0 and day 4, within 10 days): can kill target T cells indistinguishable from wild type Caspase-9 polypeptide or D330A within 10 days |
